# Reference: the nanobody polyreactivity screen of Harvey et al. (2022)
# Experiment: yeast display, Sf9 membrane polyspecificity reagent, FACS + sequencing; frameworks hold sequencing errors
# Outline: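 Sorting gates, low and high (top ~1%), were placed on anti-HA fluorescence to track expression and on streptavidin fluorescence to track reagent binding. A clone's polyreactivity label is taken from the gate it came out of. The reagent was 10% biotinylated, detergent-solubilized Sf9 membrane, applied for 1 hour at 4 °C to galactose-induced yeast display cells.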
row,Sequence,polyreactivity (PSR sort gate)
1,QVQLVESWGGLFQAGGTLRLSCAASGRTFIGYDMEWYRQAPGKERELVATISWNGADTYYADSVKGRYTISRDNAKNTVYLKMNSLKPEDTEVYYCAAERENGDHYRYYYWGQGTQVTVSS,low polyreactivity
2,QVQLVESVGGLVQAGGSLRLSCAASGFTFGPYAMGWYRQSPGKERELVAPIDDSGGNTYYADSVKGRFTISRDNAKNTVYLQMNSLKQEDTAVYYCNAFGADYYHVYPAEDYWGQGNQVTVSS,low polyreactivity
3,QVQLVESGGGLFQAGGSLRLSCAASGSILTHYAMGWYRQAPGKERELVAGNTSGGTTNYADSVKGRFTISRDNAKNSVYLQMNSLKPEDTAVYYCNADVWICQRFETGYDFDYWGQGTQVTVSS,low polyreactivity
4,QVQLVESGGGLVQAGGSLRLSCAASGLTFRSYAMGWYRPAPGKEREFVAAITGSGDTTYYADSVKGRFTISRDNAKNTVYLQMNSLKPEDTAVYYCNADRDYLWITLYEYWGQGTQVTVSS,high polyreactivity
5,QVQLVDSGGGLVQAGGSLRLSCAASGSIFSYYAMGWYRPAPGTERELVAGLSWGGGRTYYADSVKGRFTISRDNAKNTVYLQMNSLKQEDTAVYYCAARLTGLDYWGQGTQVTVSS,high polyreactivity
6,QVQLVESGGGLVQAGGSLRLSCAASGIIFKSYTMGWYRQAPGKERELVAAINSSGDRTYYADSVKGRFTISRDNAKNTVYLQMNSLKPEDTAVYYCAAAPVKKSRFRYDYWGQGTQVTVSS,high polyreactivity
7,QVQLVESGGGLVQAGGSLRLSCAACGSTFGSYAMGWYRQAPGKERELVADITSGGSTYYADSVKGRFTISRDNAKNTVYLQMNSLKPEDTAVYYCAVEGWWDDYKSGAGEFNYWGQGTQVTVSS,low polyreactivity
8,QVQLVESGGGLVQAGGSLRLSCAASGRIFSSYAMGWYRQAPGKERELVAVISQRGGSTSYADSVKGRFTISRDNAKNTVYLQMNSLKPEDTAVYYCARRPGKGNNYWGQGTQVTVSS,high polyreactivity
9,QVQLVESGGGLVKAGGSLRLSCAASGRTFGDNAMGWYRQAPGKERELVAAIRWGGGSTYYADSVKGRFTISRDNAKNTVYLQMNSLKPEDTAVYYCAKKGWSSHDRAWYIYDYWGQGSQVTVSS,low polyreactivity
10,QVQLVESGGGLDQAGGSRRLSGAASGSTFHGYDKGWYIQAPGKERELVAAITSSGDDTYYADSVKGRFTISRDNAKNTVYLKRNSLKPEDTAVYYCDAEYTEGYTHDYWGQGTKVTVSS,low polyreactivity
11,QVQLVESGGGLVQAGGSLRLSCAPSGSTFGYNDMGWYRQAPGKERELVAAIDTGVSTNYADSVKGRFTISRDNAMNTVYLQMNSLKPVDTAVYYLAKSGSAYWHSGWSVGFDYWGQGTQVTVSS,low polyreactivity
12,QVQLVESGGGLVQAGGSLRLSCAASGSTFGRYAMGWYREAPGKERELVAGITYGSTYYADSVKGRVTISRDNAKNTVYLPMNSLKPEDTAVYACAADLSYTSVHGYRSETLMDYWGQGTQVTVSS,low polyreactivity
13,QVQLVESGGGLVQAGGSLRLSCAASGRTFWANTMGWYRQAPGKEREFVAAISGRDVSTYYADSVKGRFTISRDNAMNTVYLQMNSLKPEDTAVYYCAAGNLYYAEYDYWGQGTQVTVSS,low polyreactivity
14,QVQLVESGGGLVQAGGSLRLSCAASGFTFTRYAMGWYRQAPGKERELVAAISWNSGSTYYADSVKGRFTISRDNAKNTVYLQMNSLKPEDTAVYYCAAAFLRVYYGYTGAFDYWGQGTQVTVSS,high polyreactivity
15,QLQLVESGGGIVQAGGSLRLSCAASGSIFPYNAMGWYRQAPGKEREFVAAINLSGGSTNYADSVKGRFTISRDNANYTFYLQMNSLKPEDTAVYYCNAPVVYFLPLNFDYWGQGTKVTVSS,low polyreactivity
16,QVQLVESGGGLLQAGGSLRLSCAASGITFDGNAMGWYRQAPWKERELVAGISGSGGGTYYADSVKGRFTISRDNAKNTVYLQMNSLKPEDTEVYYCAADTSTSHAYDYWGQGTQVTVSS,low polyreactivity
17,QVQLVESGGGLVQAGGSLRLSCAASGSILGGNAMGWSRQAPGKERELVAAITFSGGGTYYADSVKGRFTISRDNAKNTVYLQMNSLKPEDTAVYYCAADKDGYTYEFDYWGQGTQVTVSS,low polyreactivity
18,QVQLVESGGGLVQAGGSLRLTCAASGLTFDSNVMGWYREAPGKERELVAANTYSGRTYYADSEKGRFTISRDNAKNTVYLQMNSLKPEDTAVYYCAARNLAYTRKGYYYWGQGTQVTVSS,high polyreactivity
19,QVQHEDSGGCLVQAAGSLSVSCAATGSTFDTYEMGRSRKATGKEMELVAAISSGGGTKYADSVKGRFKISRDNAKNTVYLQMNSLKPEDTAVYYCAADKAVGDSTRYYYWGQGTQVTVSS,low polyreactivity
20,QVQLVESGGGLVLAGGSLSLSCAASGSIFNWYAMGWYRKAHGKERELVAAISWRGGSTYYADSVKGRFTISRDNAINSVYFQMNSLKPEDTAVYYCASDGGGDHMDYWGQGTQVSVSS,high polyreactivity
21,QVHLVESGGGLVQAGGSLRLSCAASGRIFYANDMGWYRQAPGKERELVAAITNTVSTTYADSVKGRFTISRDNAKNTVYLQMNSLKTEDTAVYYCNADDPYVPKADMGYWGQGTQVTVSS,low polyreactivity
22,QVQLEESGVGLLQAGGSLRLSCAASGFIFCSNDMGWYRQAPGKERELVAAITRGGNTNYADSVKGRFTISRDNAKNTVYLQLNSLKPEDTAVYYCATEGYGAVQPSYEGGYWGQGTQVTVSS,low polyreactivity

row,Sequence,polyreactivity (PSR sort gate)
1,QVQLVESGGGLVQAGGSLRLSCAASGRIFKWYAMGWYRQAPGKERELVAAITSGGGSTYYADSVKGRFTISRDNAKNTVYLQMNSLKPEDTAVYYCNSWSSYGYDYWGQGTQVTVSS,high polyreactivity
2,QVQLVESGGGLVQAGGSLRLSCAASGFTFDTYDMGWYRQAPGKERELVAAIDWSGVSTYYADSVKGRFTISRDNAKNTVYLQMNSLKPEDTAVYYCAADLWQYDIASWDYTYDYWGQGTQVTVSS,low polyreactivity
3,QVQLVESGGGLVQAGGSLRLSCAASGSTFAGYAMGWYRQAPGKERELVAAISRRGGSTYYADSVKGRFTISRDYAKNTVYLQMNRLKPEDTAVYYCNRDKYLRDPDYDYWGQGSQVTVSS,low polyreactivity
4,QVQLVESGGGLVQAGGSLRLSCAASGFTFGENAMGWYRQAPGKERELVATISDSGDSTYYADSVKGRFTISRDNAQNTVYLQMNSLKPEDTAVYYCAAPLPHRGYDEGYWGQGTQVTVSS,low polyreactivity
5,QVQLVESGGGLVQAGGSLRLSCAASGFTFDANAMGWYRQAPGKERELVAAITRFGSTFYADSVKGRFTISRDNAKNTVYLQMNSLKPEDTAVYYCNAARDHVSGYDYWGQGTQVTVSS,low polyreactivity
6,QVQLVESGRGLVQAGGSLRLICDASGSTFFLYGMGWYRPAPGKERELVAAITWNGGSTYYADSVKGRFTISRDNAKNTVYLQMNSLKPEDTAVYYCAADYYGYFSTPYDYWGQGTQVTVSS,low polyreactivity
7,QVQLVESGGGLVQAGGSLRLSCAATGSIIVYNTMGWYRQAPGKERELVAAITVRDDSTYYADSVKGRFTISRDNAKNTVYLQMNSLKPEDTAVYYCNARGNFLIGRDYWGQGTQVTVSS,low polyreactivity
8,QVQLVESGGGLVQAGGSLRLSCAASGRIFGKYAMGWYRQAPGKERELVAAISSSGRTNYADSVKGRFTISRDNAKNTVYLQMNSLKPEDTAVYYCAVRVLIHTNTRRLDYWGQGTQVTVSS,high polyreactivity
9,QVHLVESGGGLVQAGGSLRLSCAASGSIYHNAMGWYRQAPGKERELVAAITSSGGRTYYADSVKGRFTISRDNAKNTVYLQMNSLKPEDTAVYYCNALAHQYHRYEFGYWGQGTQVTVSS,low polyreactivity
10,QVQLVESGGGLVQAGGSLRLSCAASGLTFYDYAMGWYRQAPGKERELVADIDFNGGSTSYADSVKGRFTISRDNAKNTVYLQMNSLKPEDSAVYYCNSRDRGDVVTGLDYWGQGTQVTVSS,low polyreactivity
11,QVQLVESGGGLVQAGGSLRLSCAASGSTFRVYDMGWYRQAPGKERELVASISYSVGSTYYADSVKGRFTISRDNAKNTVYLQMNSLKPEDTAVYYCAARPSYQPSSLARYDYWGQGTQVTVSS,low polyreactivity
12,QVQLVESGGGLVQAGGSLRLSCAASGSTFVYNAMGWDRQAPGKERELVAAITVSDGSTYYADSVKGRFTISRDNAKNTVYLHMKSLKPEDTAVFYCNADFPRKTRYEYWGQGTQVTVSS,low polyreactivity
13,QVQLVESGGGLVHAGGSLRLSCAASGFTFGGYAMGWYRQAPGIEREFVAAISSSGGRTYYADSVKRRFTISRDNAKNTVYLPMNSLKPEDTAVYDCNVGQYLRARRPVDSWGQGTQVSVSS,high polyreactivity
14,QVQLVESGGGLVQAGGSLRLSCAASGRIFLFYAMGWYRPAPGKERELVAAISVRGGSTYYADSVKGRFTISRDNAKNTVYLQMNSLKPEDTAVYYCAAKQKHTQQYGYWGQGTQVTVSS,high polyreactivity
15,QVQLVESGGGLVQAGGSLRLSCAASGFIFLRYGMGWYRKAPGKERELVASIDSTGGSTYADSVKGRFTISRDNAKNTVYLQMNSLKPEDTAVYYCAAAYYIVSERDYWGQGTQVTVSS,low polyreactivity
16,QVQLVESGGGLVQAGGSLRLRCAASGITLAGYVMGWYRQAPGKERELVADISSSGDSTYYADSVKGRFTISRDNAKNTVYLQMNSLKPEDTAVYYCNADQVWWSFDRVLVGYEYWGQGSQVTVSS,low polyreactivity
17,QVQLVESVGGLVQAGGSLRLSCAASGRTFGRYAMGWDRQAPGKERELVAAISWSGATTYYADSVKGRFTISRDNAKNTVYLQMNSLKPEDTAVYYCAARFRRGITYEYWGQGTQVTVSS,high polyreactivity
18,QVQLVESGGGLVQAGGSLRLSCAASGSTLVRKAMGWYRQAPGKERELVAAISRSGGRTYYADSVKGRFTISRDNAKNTVYLQMNSLKPEDTAVYYCARLDGFSASDHDYWGQGTQVTVSS,high polyreactivity
19,QVQLVESGGGLVQAGGSLRLSCAASGRTFYRNDRGWYRQAPGKERELVAAITSSGGTTYADSVKGRFTISRDNAKNTVYLQMNSLKPEDTAVYYCNTVLYAYWQWDYEFDYWGQGTQVTVSS,low polyreactivity
20,QVQLVESGGGLVQAGGSLRLSCAASGSTFRLYAMGWYRQAPGKERELVAAISTRGSSTYYADSVKGRFTISRDNAKNTVYLQMNSLKPEDTAVYYCAADAYFIYSRYWYDYWGQGTQVTVSS,high polyreactivity
21,QVQLVESGGGLVQAGGSLRLSCAASGSTIKTYATMGWYRQAPGKERELVAAITACTSTNYADSVKGRFTISRDNAKNTVYLQMNSLKPEDTAVYYGAADDYYNWYLGEPGDYWGQGTQVTVSS,low polyreactivity
